Consider 167 variants from the RNAGym collection of RNA variant scans (doi:10.1073/pnas.2313332121).

To fix the notation:
B1: TPR t1 (parent)
chain: GACCAAUCUGCCCUCAGAGCUCGAGAACAUCUUCGGAUGCAGAGGAGGCAGGCUUCGGUGGCGCGAUAGCGCCAACGUCCUCAACCUCCAAUGCAUCCCACCACAUGAUGAUGCCUGAAGAGCCUUGGUUUUUUG

This series covers variants of B1. The experiment in a line: polymerase ribozyme fitness, log enrichment relative to wild type (log ratio); higher = more active; in vitro selection for triplet polymerase activity. In a few lines:
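Both subunits of a heterodimeric triplet polymerase ribozyme were given their own mutant library, built by PCR and transcribed. Each library was annealed with a biotinylated primer, the partner subunit and triplets, incubated frozen at −7 °C, and its extended constructs gel-excised, captured on streptavidin beads and amplified by RT-PCR, all in one round done in triplicate. Fitness is the logarithm of genotype enrichment relative to wild-type enrichment, with replicates averaged by inverse-variance weighting. That logarithm is base 2, and Illumina-sequenced genotypes needed ≥10 input reads and ≥1 read per output.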
Turning to C64U G69U G128C, the “polymerase ribozyme fitness (log ratio)” value is -3.93.
The same measure for G63C C94A U112A U116A: -2.14; for A66C C89A G117U: -6.24.
The same measure for A66U C115U: -3.52; for C64G C88U: -5.96.
Turning to C64A G120C U125G, the “polymerase ribozyme fitness (log ratio)” value was -7.86.
The same measure for G63U A74U G77A: -5.16; for G65A A68G A121U C123G: -5.3; for G63C G93C C97U C101U: -1.93.
Take C64A A90G U112G: the “polymerase ribozyme fitness (log ratio)” value was -5.49.
A66U A83G C86U: the “polymerase ribozyme fitness (log ratio)” value is -2.39.
Consider C64U C82A A91U G127U, for which the “polymerase ribozyme fitness (log ratio)” value is -2.81.
In the case of G63C G93A U112G, the “polymerase ribozyme fitness (log ratio)” value is -0.619.
With C64U C76U C89U U96A, the “polymerase ribozyme fitness (log ratio)” value is -3.47.
The same measure for G63C C79U U129C: -0.807; for A66C C85G U130A: -3.4.
The same measure for C64U C72U A83G U133G: -1.1.
On to G63U U131A, for which the “polymerase ribozyme fitness (log ratio)” value is -0.516.
The same measure for G63U C70U U129A: -1.48; for C64U U116G: -1.88; for C64U C114G: -2.3.
Take G63U U130G: the “polymerase ribozyme fitness (log ratio)” value was -0.881.
For the variant G63U U130A, the “polymerase ribozyme fitness (log ratio)” value is -1.46.
For the variant G63C C97U, the “polymerase ribozyme fitness (log ratio)” value is -0.711.
Under G63U U134C stands -2.26; under C64U G93C, -0.827.
Under C64G A121U stands -4.94; under C64G A121G, -4.54; under C64A G120U, -6.12.
The same measure for C64A G120A: -5.35; for G63C U125C: -3.57; for C64U C115U U130A: -1.66.
Regarding C64G U87A C124A, the “polymerase ribozyme fitness (log ratio)” value is -5.74.
The same measure for G63U U132C: -2.69.
Under G63U U132A stands -0.852; under C64U U92C, -1.23.
Under C64U U92G stands -3.31; under C64G C72U, -6.14; under G63C U78C, -1.55.
Regarding G63U U78A A90U C94U G122U, the “polymerase ribozyme fitness (log ratio)” value is -3.99.
As for C64A C123U, the “polymerase ribozyme fitness (log ratio)” value was -4.1.
On to C64A C123G, for which the “polymerase ribozyme fitness (log ratio)” value was -3.71.
With C64A C123A, the “polymerase ribozyme fitness (log ratio)” value was -3.79.
Under A66G C76A stands -1.89; under A66G C76G, -1.2.
As for G63U C98U, the “polymerase ribozyme fitness (log ratio)” value was -2.09.
Under G63U C98A stands -6.63.
Under G63C A111G U125C stands -1.75; under G63U G120A U129G, -2.16; under C64U C89U C123U, 0.715.
Under G63C G120A stands 0.11; under G63C G120U, -0.189.
For the variant A66U C85G, the “polymerase ribozyme fitness (log ratio)” value is -1.65.
As for A66U C85U, the “polymerase ribozyme fitness (log ratio)” value was -2.22.
C64A U106C: the “polymerase ribozyme fitness (log ratio)” value was -6.82.
For the variant C64U G65A A105G G113A, the “polymerase ribozyme fitness (log ratio)” value is -6.73.
Under G63C C123U stands 0.859.
The same measure for G63C C123G: 0.737; for G63C C123A: 0.07; for G63C C85G U87C: -2.82.
On to C64A G65A C97U G120A, for which the “polymerase ribozyme fitness (log ratio)” value was -5.01.
The same measure for C64U C124A: 1.41.
The same measure for C64U U112G: -0.0625.
The same measure for C64U U112A: 0.346; for C64U U112C: 0.999; for C64U G117C C123U: -4.94.
With A66U C72G A95C G110U, the “polymerase ribozyme fitness (log ratio)” value is -6.57.
The same measure for C64U G71U: -2.96.
As to G63C U116G, the “polymerase ribozyme fitness (log ratio)” value was -2.02.
Under C64U C94U C102G stands -7.24.
The same measure for G63U G117C: -4.05; for G63U G117A: -1.66; for G63U C70A U116A: -3.62.
Turning to G63U U106G, the “polymerase ribozyme fitness (log ratio)” value is -3.21.
Under C64U A84C C123G G135C stands 1.41; under C64U A90U, -0.99.
As to C64G G113A, the “polymerase ribozyme fitness (log ratio)” value is -6.17.
As to C64U G117C C123U U125A, the “polymerase ribozyme fitness (log ratio)” value is -6.02.
For G63C U81C, the “polymerase ribozyme fitness (log ratio)” value is -0.941.
Turning to G63C U109C, the “polymerase ribozyme fitness (log ratio)” value is -4.03.
On to G63C U109G, for which the “polymerase ribozyme fitness (log ratio)” value is -3.42.
Under C64U G107U U130C stands -6.04; under G63C C101U U130G, -0.981.
C64U U96A: the “polymerase ribozyme fitness (log ratio)” value was -1.23.
Under C64U U129A stands -0.991.
Under C64U U129G stands -1.46.
For C64U U129C, the “polymerase ribozyme fitness (log ratio)” value is -0.708.
Take G63U C85A: the “polymerase ribozyme fitness (log ratio)” value is -3.39.
Under C64U C79U stands -0.541.
As to C64U U87G G113A, the “polymerase ribozyme fitness (log ratio)” value is -0.485.
Under C64U U130G stands -0.668.
For A66G G77A, the “polymerase ribozyme fitness (log ratio)” value was -1.13.
Regarding C64G A66G G69C C82A A105U, the “polymerase ribozyme fitness (log ratio)” value is -3.01.
As for C64A G117A, the “polymerase ribozyme fitness (log ratio)” value was -6.29.
The same measure for C64U A66G C86U A95U C99A G117C: -7.47; for G63U U116A: -3.57; for C64U U78C C104U: 0.13.
Under G63U C73A C97U stands -4.28.
Under A66U C88U stands -0.564.
For the variant A66C C72G C115A, the “polymerase ribozyme fitness (log ratio)” value was -1.65.
The same measure for C64U A100U: -0.493.
In the case of A66C U78C, the “polymerase ribozyme fitness (log ratio)” value is -1.36.
For A66G A83C C89U A95C, the “polymerase ribozyme fitness (log ratio)” value is -2.97.
The same measure for C64U A121G: 1.93; for G63U A68C A121G: -5.43; for C64U A100U U130A: -1.02.
For the variant A66G G77U C89A, the “polymerase ribozyme fitness (log ratio)” value is -4.38.
Under C64G G120C stands -4.47; under G63C G71U U96A A100U G117U U134G, -5.35; under G63U C82A U126A, -3.13.
Under C64U C86A G135U stands -2.35.
The same measure for C64U A83G A111C: -2.93; for G65A G69A U112C: -4.9.
Turning to C64A A84C, the “polymerase ribozyme fitness (log ratio)” value is -5.15.
For C64U C82A C124A, the “polymerase ribozyme fitness (log ratio)” value came to 1.31.
Under C64U G120C stands 0.769.
The same measure for A66G U87A: -0.982.
The same measure for A66C C94A C114G G120C: -5.33.
For the variant G65A A111C, the “polymerase ribozyme fitness (log ratio)” value is -5.66.
Consider G63C C88G, for which the “polymerase ribozyme fitness (log ratio)” value is -1.3.
The same measure for A66G C79G U130C: -3.06; for G63U C115G: -2.29; for G63U C115U: -3.37.
The same measure for G63U C115A: -1.22; for G63U A100C: -2.79; for G63U G93U C123U: -1.46.
For A66G C79G U81C C99G G113U G120C, the “polymerase ribozyme fitness (log ratio)” value was -7.68.
Under A66U C97U G120U C123U stands -0.305.
As for G63C G107U, the “polymerase ribozyme fitness (log ratio)” value was -5.92.
Turning to C64U C123G, the “polymerase ribozyme fitness (log ratio)” value turned out to be 1.86.
C64U C123U: the “polymerase ribozyme fitness (log ratio)” value was found to be 1.23.
For G63C G93A G122A, the “polymerase ribozyme fitness (log ratio)” value is -1.99.
The same measure for G63U A105U: -3.37.
G63C C64U A118G U133G: the “polymerase ribozyme fitness (log ratio)” value is -4.77.
As to G63U C70G C89A A90U A100U A121G, the “polymerase ribozyme fitness (log ratio)” value was -2.02.
Turning to G63C U87A, the “polymerase ribozyme fitness (log ratio)” value is -1.59.
G63C U87G: the “polymerase ribozyme fitness (log ratio)” value is -0.832.
Under G63C U87C stands -0.645; under A66U C76G U78A U106A, -0.894.
For the variant G63C C76A A91C A100C C115G C123A, the “polymerase ribozyme fitness (log ratio)” value is -4.91.
Regarding G63U A95U C124U G135A, the “polymerase ribozyme fitness (log ratio)” value was -0.147.
As for G65U C72A, the “polymerase ribozyme fitness (log ratio)” value is -5.48.
Turning to G63U G120U, the “polymerase ribozyme fitness (log ratio)” value is -0.921.
With C64G C115A G128A U130C, the “polymerase ribozyme fitness (log ratio)” value is -5.49.
The same measure for C64G G65U C79G C104A C115A C123G: -6.93; for G63U C82A: -0.955.
In the case of G63U C82U, the “polymerase ribozyme fitness (log ratio)” value is -1.76.
The same measure for C64U A90U A100U: -3.1; for G63C C88A C94A: -2.47; for C64U G77C C79U C98A A121U U133C: -2.71.
For the variant A66C C85G U106A, the “polymerase ribozyme fitness (log ratio)” value was -2.61.
Under G65A G117U stands -6.21; under C64G C124U, -5.45.
As for G63U C104U, the “polymerase ribozyme fitness (log ratio)” value was -1.36.
Under G63U U78G G107U A111U U116C stands -6.
Under G65A U112A stands -2.74.
The same measure for G63U C89U G93A G120A: -1.65; for G63U C80A: -4.88.
For the variant G63U C124G, the “polymerase ribozyme fitness (log ratio)” value stood at 0.287.
For the variant G63U C124A, the “polymerase ribozyme fitness (log ratio)” value came to 0.583.
C64U C80U C88U A111G C114A: the “polymerase ribozyme fitness (log ratio)” value is -5.18.
Turning to C64A C86U A103U C114A, the “polymerase ribozyme fitness (log ratio)” value was -6.49.
For the variant A66G G71U C94A A111C, the “polymerase ribozyme fitness (log ratio)” value is -4.73.
For the variant C64U G77U, the “polymerase ribozyme fitness (log ratio)” value was -0.465.
As for C64U G77A, the “polymerase ribozyme fitness (log ratio)” value is -0.391.
Under G63U U78C stands -2.92; under G63U U67A, -6.27.
